One block for each binder: values may come before it.
Key:
[1] = biological target: human c-kit (recombinant, on BIAcore chip or beads) (human) (UniProt P10721); assay: BIAcore
[2] = biological target: mouse c-kit (recombinant, on BIAcore chip) (mouse) (UniProt P05532); assay: BIAcore
[3] = biological target: T1, Mouse cKIT ECD-Fc (mouse; human) (UniProt P05532); assay: BIAcore
T1 sequence (looked up): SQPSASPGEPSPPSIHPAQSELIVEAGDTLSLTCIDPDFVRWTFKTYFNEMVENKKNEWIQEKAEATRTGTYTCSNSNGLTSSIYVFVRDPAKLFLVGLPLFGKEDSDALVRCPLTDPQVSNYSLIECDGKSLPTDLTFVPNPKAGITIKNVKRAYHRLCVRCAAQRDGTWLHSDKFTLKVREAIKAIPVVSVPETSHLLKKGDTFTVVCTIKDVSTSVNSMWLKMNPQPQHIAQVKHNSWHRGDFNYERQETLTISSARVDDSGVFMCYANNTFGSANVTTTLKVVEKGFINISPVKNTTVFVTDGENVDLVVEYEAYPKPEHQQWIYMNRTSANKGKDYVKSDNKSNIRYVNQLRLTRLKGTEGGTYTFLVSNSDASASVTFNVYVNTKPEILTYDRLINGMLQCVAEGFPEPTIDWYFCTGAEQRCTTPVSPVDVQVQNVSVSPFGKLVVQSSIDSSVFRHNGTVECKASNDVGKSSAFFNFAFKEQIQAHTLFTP

[4] = biological target: mouse c-kit (recombinant, on BIAcore chip) (mouse) (UniProt P05532); assay: BIAcore 2000, 1 uM dAb
[5] = biological target: mouse c-kit (recombinant, on BIAcore chip) (mouse) (UniProt P05532); assay: BIAcore, c-kit on SA chip
[6] = biological target: mouse c-kit (recombinant, on BIAcore chip) (mouse) (UniProt P05532); assay: BIAcore, dAb at 1000 and 500 nM
[7] = biological target: mouse c-kit (recombinant, on BIAcore chip) (mouse) (UniProt P05532); assay: BIAcore, approximate kinetic constants

Sequence of human c-kit (recombinant, on BIAcore chip or beads) (human) (P10721 26-524): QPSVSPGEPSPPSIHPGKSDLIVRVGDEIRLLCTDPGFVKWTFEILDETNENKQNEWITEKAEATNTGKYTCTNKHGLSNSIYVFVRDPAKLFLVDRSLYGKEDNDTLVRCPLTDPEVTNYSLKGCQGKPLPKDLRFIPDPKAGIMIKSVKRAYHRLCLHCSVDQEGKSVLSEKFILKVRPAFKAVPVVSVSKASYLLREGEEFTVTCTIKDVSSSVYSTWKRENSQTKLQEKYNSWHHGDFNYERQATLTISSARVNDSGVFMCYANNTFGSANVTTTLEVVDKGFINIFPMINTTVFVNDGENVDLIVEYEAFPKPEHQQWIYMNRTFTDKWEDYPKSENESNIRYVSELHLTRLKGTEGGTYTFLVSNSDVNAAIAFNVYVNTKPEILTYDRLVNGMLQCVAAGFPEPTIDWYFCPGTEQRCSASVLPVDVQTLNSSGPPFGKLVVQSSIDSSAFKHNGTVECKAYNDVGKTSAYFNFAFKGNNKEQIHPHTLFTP

B1: DMS5052 (chimeric MLC mAb-cKIT dAb, DOM28m-007) (bispecific antibody, not shown: a dimerising Fc or GST)
heavy (part 1 of 2): QVQLQQSGAELASPGASVKLSCKASGYTFTTYWIHWVKQRPGQGLEWIGAIYPGDGDTRYTQNFKDKATLTADSSSSTAYMQLSSLASEDSAVFYCAREGTPPFTTATFAMAYWGQGTSVTVSS
heavy (part 2 of 2): STGEVQLLESGGGLVQPGGSLRLSCAASGFTFSNYAMGWVRQAPGKGLEWVSSISSSGFATYYADSVKGRFTISRDNSKNTLYLQMNSLRAEDTAVYYCAKSESRTFKAFDYWGQGTLVTVSS
light: DIVMSQSPSSLAVSAGDKVTMSCKSSQSLLYSRTRKNYLAWYQQKPGQSPKLLIYWASTRQSGVPDRFTGSGSGTDFTLTISSVQAEDLAVYYCKQSYNLFTFGSGTKLEIKR
Kd [1]: 27 nM | Kd [2]: 80 nM | Kd [3]: 36 nM

B2: DMS5060 (chimeric MLC mAb-cKIT dAb, DOM28h-094) (bispecific antibody, not shown: a dimerising Fc or GST)
heavy (part 1 of 2): QVQLQQSGAELASPGASVKLSCKASGYTFTTYWIHWVKQRPGQGLEWIGAIYPGDGDTRYTQNFKDKATLTADSSSSTAYMQLSSLASEDSAVFYCAREGTPPFTTATFAMAYWGQGTSVTVSS
heavy (part 2 of 2): STGEVQLLESGGGLVQPGGSLRLSCAASGFTFFPYAMGWVRQAPGKGLEWVSFISGRGDTTYYADSVKGRFTISRDNSKNTLYLQMNSLRAEDTAVYYCAKTATSDLWNFDYWGQGTLVTVSS
light: DIVMSQSPSSLAVSAGDKVTMSCKSSQSLLYSRTRKNYLAWYQQKPGQSPKLLIYWASTRQSGVPDRFTGSGSGTDFTLTISSVQAEDLAVYYCKQSYNLFTFGSGTKLEIKR
Kd [1]: 36 nM | Kd [2]: 14 nM | Kd [3]: 13 nM

B4: DOM28h-94 (protein)
VH: EVQLLESGGGLVQPGGSLRLSCAASGFTFFPYAMGWVRQAPGKGLEWVSFISGRGDTTYYADSVKGRFTISRDNSKNTLYLQMNSLRAEDTAVYYCAKTATSDLWNFDYWGQGTLVTVSS
Kd [5]: 1500 nM | Kd [6]: 1500 nM

B5: DOM28h-94-10 (protein)
VH: EVQLLESGGGLVQPGGSLRLSCAASGFTVFPYAMGWVRQAPGKGLEWVSFISGRGDTTYYADSVKGRFTISRDNSKNTLYLQMNSLRAEDTAVYYCAKTATSDLWNFDYRGQGTLVTVSS
Kd [7]: 112 nM

Results, then the binder that gave them:

Kd [4]: 4000 nM | Kd [2]: 3000 nM
B3: DOM28m-7 (protein)
VH: EVQLLESGGGLVQPGGSLRLSCAASGFTFSNYAMGWVRQAPGKGLEWVSSISSSGFATYYADSVKGRFTISRDNSKNTLYLQMNSLRAEDTAVYYCAKSESRTFKAFDYWGQGTLVTVSS

Kd [7]: 11 nM
B6: DOM28h-94-12 (protein)
VH: EVQPLESGGGLVQPGGSLRLSCAVSGFTVFPYAMGWVRQAPGKGLEWVSFISGRGDTTYYADSVKGRFTISRDNSKNTLYLQMNSLRAEDTAVYYCAKTATSDLWNFDYRGQGTLVTVSS

Kd [4]: 22000 nM | Kd [2]: 22000 nM | Kd [5]: 2800 nM
B7: DOM28m-23 (protein)
VH: EVRLLESGGGLVQPGGSLRLSCAASGFTFRDYVMVWVRQAPGKGLEWVSAIAPTGGYTYYADSVKGRFTISRDNSKNTLYLQMNSLRAEDTAVYYCAKSLRTWLSEDLPFDYWGQGTLVTVSS

Kd [4]: 9000 nM | Kd [2]: 9000 nM
B8: DOM28m-73 (protein)
chain: EVQLLESGGGLVQPGGSLRLSCAASGFTFKHYSMNWVRQAPGKGLEWVSRISPSGVSTYYADSVKGRFTISRDNSKNTLYLQMNSLRAEDTAVYYCAKIMNSHKADEFDYWGQGTLVTVSS

Source: patent US20120253017A1
